Each binder was assayed against HLA-A*0301 (human) (assay: competition with 125I-labelled standard peptide for purified HLA-A*0301, gel filtration).

Binder | binding affinity ratio (IC50 of standard peptide / IC50 of test peptide)
LTNILNVLK (modifications not checked) [HPV16 E1 191 …] | 0.0086
LSLHEDEDK (modifications not checked) [HPV16 E1 620 …] | 0.0005
LVSMDVKHR (modifications not checked) [HPV16 E1 544 …] | 0.0005

These binders were tested against HLA-A*1101 (human) (assay: competition with 125I-labelled standard peptide for purified HLA-A*1101, gel filtration).

Binder | binding affinity ratio (IC50 of standard peptide / IC50 of test peptide) | binding affinity ratio (IC50 of standard peptide / IC50 of test peptide) (ratio to standard peptide)
KLRHLNEKR (modifications not checked) [HPV18 E6 117 …] | 0.0005 | 
ELRHYSDSVY (modifications not checked) [HPV18 E6 77 …] | 0.0002 | 
LTNILNVLK (modifications not checked) [HPV16 E1 191 …] |  | 0.42
DSIPHAACH (modifications not checked) [HPV18 E6 58 …] | 0.0002 | 
LSLHEDEDK (modifications not checked) [HPV16 E1 620 …] |  | 0.0002
LVSMDVKHR (modifications not checked) [HPV16 E1 544 …] |  | 0.0089

Each binder was assayed against HLA-A*0201 (human) (assay: competition with 125I-labelled standard peptide for purified HLA-A*0201, gel filtration).

Binder | relative binding ratio (IC50 of standard peptide / IC50 of test peptide) | binding affinity ratio (IC50 of the standard peptide / IC50 of the test peptide)
NTSLQDIEIT (modifications not checked) [HPV18 E6 peptide … (position 22)] | 0.0001 | 
ELRHYSDSV (modifications not checked) [HPV18 E6 peptide … (position 77)] | 0.0003 | 
DLFVVYRDSI (modifications not checked) [HPV18 E6 51 …] |  | 0.0001
DTLEKLTNT (modifications not checked) [HPV18 E6 88 …] |  | 0.0001
PLNPAEKL (modifications not checked) [HPV18 E6 peptide PLNPAEKL (position 111)] | 0.0001 | 
FIHFIQGAVI (modifications not checked) [HPV18 E1 peptide … (position 497, 10 amino acids)] |  | 0.0057
RLQRRRETQV (modifications not checked) [HPV18 E6 peptide … (position 149)] | 0.0001 | 
FIQGAVISFV (modifications not checked) [HPV18 E1 peptide … (position 500, 10 amino acids)] |  | 0.046
CMCCKCEA (modifications not checked) [HPV18 E7 peptide CMCCKCEA (position 63)] | 0.0005 | 
SLQDIEITCV (modifications not checked) [HPV18 E6 peptide … (position 24)] | 0.025 | 
KLTNTGLYNL (modifications not checked) | 0.0048 | 
ELNTSLQDI (modifications not checked) [HPV18 E6 20 …] |  | 0.0001
DLRAFQQL (modifications not checked) [HPV18 E7 peptide DLRAFQQL (position 82)] | 0.0001 | 
KLTNTGLYNLL (modifications not checked) | 0.0043 | 
SVYGDTLEKL (modifications not checked) [HPV18 E6 peptide … (position 84)] | 0.0028 | 
CMCCKCEARI (modifications not checked) [HPV18 E7 peptide … (position 63)] | 0.002 | 
TVLELTEV (modifications not checked) [HPV18 E6 peptide TVLELTEV (position 37)] | 0.001 | 
GTGCNGWFYV (modifications not checked) [HPV18 E1 peptide … (position 11, 10 amino acids)] |  | 0.0006

Source: patent US7026443
